Assay results: publication PMC3240820 (Structure (London, England : 1993), 2011)
Like-named read-outs stand apart in the source and are kept apart here.

Legend:
Caskin1 CID-2SAMs G520E = Caskin1 CID-2SAMs G520E (human, UniProt Q8WXD9 375-605, G520E); assay: SEC
[1] = target: T1, CaMK domain of CASK (CASK310), residues 1-310 (UniProt O14936 1-310); assay: co-precipitation on dialysis into low salt
T1 sequence (looked up): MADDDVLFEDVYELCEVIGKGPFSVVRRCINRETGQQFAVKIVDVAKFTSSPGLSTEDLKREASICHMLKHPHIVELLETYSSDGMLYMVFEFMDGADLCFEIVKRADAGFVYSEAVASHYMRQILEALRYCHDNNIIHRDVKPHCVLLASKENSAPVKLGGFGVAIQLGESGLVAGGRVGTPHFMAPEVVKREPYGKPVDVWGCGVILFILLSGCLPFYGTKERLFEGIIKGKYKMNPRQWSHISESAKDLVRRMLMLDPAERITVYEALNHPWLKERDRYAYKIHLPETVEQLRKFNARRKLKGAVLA

crystal structure = target: the molecule itself; assay: crystal structure
[2] = target: the molecule itself

Sequence of Caskin1 CID-2SAMs G520E (Q8WXD9 375-605 G520E): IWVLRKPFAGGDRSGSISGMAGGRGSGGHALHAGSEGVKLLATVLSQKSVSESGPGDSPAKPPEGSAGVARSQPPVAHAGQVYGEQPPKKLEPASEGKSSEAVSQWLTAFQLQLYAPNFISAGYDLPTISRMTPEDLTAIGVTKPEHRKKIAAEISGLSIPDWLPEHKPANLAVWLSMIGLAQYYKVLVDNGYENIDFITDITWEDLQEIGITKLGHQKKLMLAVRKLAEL

B1: Caskin1 CID-2SAMs G566K (domain or fragment)
chain: not shown
Caskin1 CID-2SAMs G520E
  binding result: binds

B2: Caskin1 CID-2SAMs (residues 375-605) (domain or fragment)
chain: not shown
[1]
  binding result: binds

B3: Caskin1 6His-(E470-G615) (domain or fragment)
chain: not shown
Crystal structure
  binding result: binds

B4: Caskin1 SAMs (E470-G615) with the His-tag removed (domain or fragment)
chain: not shown
[2]
  binding result: binds
